Data reported in patent US20250026849A1 (ARCELLX, published 2025).
Substitutions are numbered along the chain they refer to. One block for each binder: values may come before it.

What was measured:
CD123 = target: T1, CD123 (Homo sapiens (Human), UniProt P26951 19-305, limits assumed); test: ELISA; design: unit not given here
T1 construct: The CD123 construct used in the ELISA is not described; also called CD123-Signal
T1 sequence: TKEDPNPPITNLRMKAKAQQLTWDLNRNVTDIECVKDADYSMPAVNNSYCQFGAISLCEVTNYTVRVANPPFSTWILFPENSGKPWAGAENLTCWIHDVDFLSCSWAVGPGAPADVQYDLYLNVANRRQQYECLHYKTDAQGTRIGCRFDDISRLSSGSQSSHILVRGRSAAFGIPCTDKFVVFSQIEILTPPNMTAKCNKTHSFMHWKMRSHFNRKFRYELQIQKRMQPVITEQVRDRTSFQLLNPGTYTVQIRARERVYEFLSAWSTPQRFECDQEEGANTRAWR

BCMA = target: T2, BCMA (Homo sapiens (Human), UniProt Q02223 1-54, limits assumed); test: ELISA, format not described; design: unit not given here
T2 sequence: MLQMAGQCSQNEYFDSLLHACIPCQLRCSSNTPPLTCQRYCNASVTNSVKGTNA

B1: D domain of SEQ ID NO: 654 (designed binder)
chain: MGSWYEFLARLYAIDERLWALGGSEAELATFEHWIADFEEQLQSYKGKGNPEVEALTDEAVAIGEELSAYRHN
ELISA_avg (CD123): 4.5

B2: D domain of SEQ ID NO: 645 (designed binder)
chain: MGSWYEFFDRLDAIDERLWALGGSEAELAWFEAEIAEFEMELQGYKGKGNPEVEALDVEAHAIEMELFAYRHN
ELISA_avg (CD123): 3.7

B3: D domain of SEQ ID NO: 649 (designed binder)
chain: MGSWWEFKYRLDAICFRLAALGGSEAELASFEDEIAYFEEDLQGYKGKGNPEVEALDYEALAIWDELAAYRHN
ELISA_avg (CD123): 3.1

B4: D domain of SEQ ID NO: 653 (designed binder)
chain: MGSWNEFVIRLFAIDDRLYALGGSEAELAWFEDEIATFEYELQRYKGKGNPEVEALEYEAEAIVSELFAYRHN
ELISA_avg (CD123): 3.5

B5: D domain of SEQ ID NO: 657 (designed binder)
chain: MGSWHEFWQRLEAIEGRLWALGGSEAELADFESLIADFEEQLQEYKGKGNPEVEALMAEAEAIDNELRAYRHN
ELISA_avg (CD123): 7

B6: D domain of SEQ ID NO: 647 (designed binder)
chain: MGSWVEFSNRLDAIWERLQALGGSEAELAYFEWEIAEFEWELQSYKGKGNPEVEALNAEADAIEWELEAYRHN
ELISA_avg (CD123): 5.1

B7: D domain of SEQ ID NO: 644 (designed binder)
chain: MGSWEEFEWRLDAIDERLWALGGSEAELATFEYEIAIFENELQQYKGKGNPEVEALDSEAYAIERELGAYRHN
ELISA_avg (CD123): 4.3

B8: D domain of SEQ ID NO: 656 (designed binder)
chain: MGSWFEFETRLEAIDLRLWALGGSEAELATFEDVIAFFEDWLQFYKGKGNPEVEALKMEAWAIGEELHAYRHN
ELISA_avg (CD123): 6.6

B9: D domain of SEQ ID NO: 646 (designed binder)
chain: MGSWYEFMGRLEAIDERLQALGGSEAELAWFEHEIAEFEWSLQWYKGKGNPEVEALRFEAGAIPWELWAYRHN
ELISA_avg (CD123): 3.5

B10: D domain of SEQ ID NO: 655 (designed binder)
chain: MGSWLEFETRLHAIDERLWALGGSEAELAEFEEHIAWFEEDLQFYKGKGNPEVEALDFEADAIGWELWAYRHN
ELISA_avg (CD123): 4.6

B11: D domain of SEQ ID NO: 658 (designed binder)
chain: MGSWYEFEQRLEAIEWRLGALGGSEAELATFEEDIADFEEWLQEYKGKGNPEVEALQYEAYAIAEELHAYRHN
ELISA_avg (CD123): 4.4

B12: D domain of SEQ ID NO: 659 (designed binder)
chain: MGSWYEFENRLFAIEERLWALGGSEAELAWFEYEIANFEWGLQSYKGKGNPEVEALDNEAEAIDIELAAYRHN
ELISA_avg (CD123): 3.3

B13: D-domain SEQ ID NO: 79 (designed binder)
chain: MGSWVEFKARLEAISSRLTALGGSEAELAAFEKEIAAFESELQAYKGKGNPEVEELRYSAALIRVYLQAYRHN
ELISA_avg (BCMA): 8.71

B25: D-domain SEQ ID NO: 80 (designed binder)
chain: B13 chain with V5S, K8Y, A9T, S15N, S16N, T19H, S59T, V65I
ELISA_avg (BCMA): 3.66

B27: D-domain SEQ ID NO: 78 (designed binder)
chain: B13 chain with K8R, A9S, S16N, T19R, Y58T, S59T
ELISA_avg (BCMA): 3.04

B31: D-domain SEQ ID NO: 82 (designed binder)
chain: B13 chain with V5T, K8A, A9S, E12V, S15R, S16Q, T19Q, L62I, Y66M
ELISA_avg (BCMA): 7.99

B35: D-domain SEQ ID NO: 83 (designed binder)
chain: B13 chain with V5S, K8D, A9Q, E12A, S15Y, S16Q, T19N, Y66M
ELISA_avg (BCMA): 7.72

B37: D-domain SEQ ID NO: 81 (designed binder)
chain: B13 chain with V5A, K8Y, A9H, E12D, T19R, S59T, V65I
ELISA_avg (BCMA): 4.31

B38: D-domain SEQ ID NO: 84 (designed binder)
chain: B13 chain with K8H, A9N, E12S, S16D, T19G, Y66M
ELISA_avg (BCMA): 7.36

B39: D-domain SEQ ID NO: 73 (designed binder)
chain: MGSWVEFQERLMAISDRLYALGGSEAELAAFEKEIAAFESELQAYKGKGNPEVEELRWQAAMIRYTLQAYRHN
ELISA_avg (BCMA): 6.7

B40: D-domain SEQ ID NO: 85 (designed binder)
chain: B13 chain with V5N, K8E, A9D, E12S, S16A, T19S, Y66M
ELISA_avg (BCMA): 4.09

B41: D-domain SEQ ID NO: 72 (designed binder)
chain: B13 chain with K8Q, A9D, S15T, S16D, T19Y, L62M, Y66I
ELISA_avg (BCMA): 8.88

B43: D domain of SEQ ID NO: 643 (designed binder)
chain: MGSWDEFEFRLEAIDSRLWALGGSEAELAVFEYEIAQFEFMLQEYKGKGNPEVEALGMEAWAIENELFAYRHN
ELISA_avg (CD123): 3.6

B44: D domain of SEQ ID NO: 652 (designed binder)
chain: MGSWIEFWNRLEAIEERLYALGGSEAELAYFEDEIAEFEIYLQQYKGKGNPEVEALKHEAEAINKELMAYRHN
ELISA_avg (CD123): 5.2

B45: D domain of SEQ ID NO: 642 (designed binder)
chain: MGSWWEFEDRLYAIDDRLWALGGSEAELAQFEREIAQFEIWLQEYKGKGNPEVEALDDEATAINSELFAYRHN
ELISA_avg (CD123): 5.5

B46: D domain of SEQ ID NO: 651 (designed binder)
chain: MGSWWEFNARLDAIEDRLMALGGSEAELAYFEDIIASFENILQQYKGKGNPEVEALWYEAYAIEKELNAYRHN
ELISA_avg (CD123): 3.4

B47: D domain of SEQ ID NO: 650 (designed binder)
chain: MGSWDEFAMRLEAIQARLFALGGSEAELAIFEDEIAFFETMLQDYKGKGNPEVEALEYEAAAIEAELGAYRHN
ELISA_avg (CD123): 3.7

B48: D domain of SEQ ID NO: 648 (designed binder)
chain: MGSWEEFHMRLIAIDERLWALGGSEAELAGFEESIAYFESQLQDYKGKGNPEVEALDYEAHAIWRELYAYRHN
ELISA_avg (CD123): 3.9

Continued, values first:

ELISA_avg (BCMA): 16.3
B14: D-domain SEQ ID NO: 97 (designed binder)
chain: B13 chain with K8E, A9E, E12A, S15A, S16T, T19H, Y58W, S59R, L62I

ELISA_avg (BCMA): 9.54
B15: D-domain SEQ ID NO: 111 (designed binder)
chain: MGSWTEFDHRLGAIWERLVALGGSEAELAAFEKEIAAFESELQAYKGKGNPEVEELRFHAAIIRIFLQAYRHN

ELISA_avg (BCMA): 5.79
B16: D-domain SEQ ID NO: 90 (designed binder)
chain: B13 chain with V5T, K8H, A9D, S15T, S16H, T19N, I63L, Y66F

ELISA_avg (BCMA): 11.3
B17: D-domain SEQ ID NO: 103 (designed binder)
chain: B13 chain with V5E, K8S, A9E, S16I, T19R, Y58V, L62I, Y66W

ELISA_avg (BCMA): 23.6
B18: D-domain SEQ ID NO: 112 (designed binder)
chain: B15 chain with D8H, H9V, G12S, E16D, F66V

ELISA_avg (BCMA): 6.42
B19: D-domain SEQ ID NO: 92 (designed binder)
chain: B13 chain with V5T, K8A, A9N, S15N, S16A, T19H, Y58F

ELISA_avg (BCMA): 7.8
B20: D-domain SEQ ID NO: 100 (designed binder)
chain: B13 chain with K8Y, A9H, S15R, S16Y, T19S, S59V, L62V, V65Y, Y66R

ELISA_avg (BCMA): 8
B21: D-domain SEQ ID NO: 94 (designed binder)
chain: B13 chain with V5I, K8H, A9Q, S15V, S16T, T19E, S59Q, Y66F

ELISA_avg (BCMA): 6.37
B22: D-domain SEQ ID NO: 104 (designed binder)
chain: B39 chain with V5S, Q8S, E9D, M12H, Y19Q, W58I, M62I, Y65V, T66W

ELISA_avg (BCMA): 7.63
B23: D-domain SEQ ID NO: 86 (designed binder)
chain: B13 chain with K8E, A9Y, E12V, S15F, S16D, T19Q, S59Q, Y66M

ELISA_avg (BCMA): 3.83
B24: D-domain SEQ ID NO: 87 (designed binder)
chain: B13 chain with K8Q, A9G, E12G, S15H, S16E, T19Q, Y66F

ELISA_avg (BCMA): 7.12
B26: D-domain SEQ ID NO: 88 (designed binder)
chain: B13 chain with V5Y, K8S, A9M, E12S, S15W, S16E, T19H, S59Q, V65F

ELISA_avg (BCMA): 6.34
B28: D-domain SEQ ID NO: 91 (designed binder)
chain: B13 chain with V5T, K8E, A9H, S15A, S16G, T19N, V65F, Y66W

ELISA_avg (BCMA): 8.85
B29: D-domain SEQ ID NO: 93 (designed binder)
chain: B13 chain with V5E, K8D, A9R, E12Y, S15A, S16R, T19E, S59Q, Y66W

ELISA_avg (BCMA): 6.7
B30: D-domain SEQ ID NO: 99 (designed binder)
chain: B15 chain with D8R, H9D, W15Y, E16H, V19D, F58Y, H59Q, I65V, F66Y

ELISA_avg (BCMA): 10.4
B32: D-domain SEQ ID NO: 96 (designed binder)
chain: B13 chain with V5W, K8E, A9D, E12S, S15M, S16E, T19H, S59R, L62I

ELISA_avg (BCMA): 4.15
B33: D-domain SEQ ID NO: 89 (designed binder)
chain: B13 chain with V5T, K8S, A9Q, E12G, S16E, T19Y, V65F, Y66M

ELISA_avg (BCMA): 9.87
B34: D-domain SEQ ID NO: 113 (designed binder)
chain: B15 chain with T5N, H9N, G12Q, E16D, V19H, I62M, F66T

ELISA_avg (BCMA): 5.64
B36: D-domain SEQ ID NO: 101 (designed binder)
chain: B13 chain with K8Y, A9D, S15R, S16Y, T19S, S59I, L62V, V65Y, Y66R

ELISA_avg (BCMA): 8.21
B42: D-domain SEQ ID NO: 95 (designed binder)
chain: MGSWSEFYDRLKAIADRLHALGGSEAELAAFEKEIAAFESELQAYKGKGNPEVEELRTEAAIIRVYLQAYRHN
